From patent US9199028B2, “Use of entrained neutrophils to treat metastatic and micrometastatic disease in at risk patients” (MEMORIAL SLOAN-KETTERING CANCER CENTER, priority 2010, dated 2015) come the findings set out here.

“Also recorded” adds a separate entry of the source.

One assay relates to neutrophils. The assay is described as follows: In vivo rhG-CSF administration (neutrophil mobilization and lung sequestration). Set-up: species or system mouse. Particulars: mice. On the procedure:
Mice were orthotopically injected with 5×10^6 luciferase labelled 4T1 cells. 24 hours later Apocynin (2.4 g/liter) was administered in sugar sweetened drinking water. Control animals were treated with sugar sweetened water. Drinking water for both Apocynin treated and control mice were replaced every two days. Time-Lapse Microscopy 20,000 4T1 cells were labelled with CellTracker-Red (molecular Probes) according to the manufacturer instructions and plated on a chamber slide. 4 hours later, 400,000 neutrophils, isolated from 4T1 tumour-bearing Balb/c Ube-GFP mice, were added to the culture. Live imaging of Caspase 3 activation was done by labelling the tumour cells with the Caspase 3 substrate NucView 488 (Biotium) prior to the addition of GFP negative TENs. Images were taken every 10 minutes using the MetaMorph imaging system. Neutrophil Transfer Female nude mice were injected with 5×10^4 luciferase labelled 4T1 cells to the tail vein. 4 hours later, the mice were injected with 5×10^6 TENs or G-CSF mobilized neutrophils into the tail vein. Control mice were injected with vehicle. Formation of lung metastases was monitored using the IVIS-200 optical in vivo imaging system. Chemokine Administration rhG-CSF (Neupogen, Amgen) was administered daily (250 microg/kg/day) s.c. for 4 consecutive days. In vitro neutrophil stimulation—neutrophils were isolated from naïve mice and co-cultured with tumour cells in the presence of mCCL2, mCCL5 (both from R&D) or rhG-CSF (all at 20 ng/ml) or with TGF-Beta (R&D) (up to 200 pMolar). Human neutrophils purified from healthy volunteers were stimulated in vitro with hCCL2, hCCL5, hCCL3, hCCL4, hCXCL1, hCXCL12 and hCXCL16 (all from R&D at 100 ng/ml) or with rhG-CSF (20 ng/ml). Statistical Analysis For statistical analysis, the data is presented as mean±SEM and were analyses using Students t tests. Differences were considered significant when p<0.05.
In vivo administration of Apocynin: Mice were orthotopically injected with 5×10^6 luciferase labelled 4T1 cells. […] Formation of lung metastases was monitored using the IVIS-200 optical in vivo imaging system. […]

The subject of the next assay is 4T1 cells. As to the kind of experiment: In vitro killing assay: naïve mouse neutrophils co-cultured with luciferase labelled 4T1 cells in the presence of chemokines. In kind it is cell-based. The following applies: naïve mouse neutrophils co-cultured with 4T1 cells, chemokine 20 ng/ml, overnight. The text has this:
Antibodies used for immunohistochemistry—MMP9, F4/80 and CCR2 (all from AbCam), Myeloperoxidase (Dako), Ly-6G and Cd11b (both from BD), and Cleaved Caspase 3 (Cell signalling). Antibodies used for western blotting—Actin (Sigma), CCL2 (AbCam) and CCL5 (R&D) p-SMAD2 (cell signalling). Antibodies used for FACS analysis FITC-Ly-6G, FITC-Cd11b, FITC-F4/80, FITC-Cd34 and FITC-c-Kit (all from BD) and VEGFR1-AP (R&D). Neutrophil Depletion Neutrophil depletion was achieved using daily IP injections of 12.5 μg Rat anti-Gr-1 antibody (BD) or Rat anti-Ly-6G antibody (BD) starting on day 3 post tumour engraftment. Starting on day 14, neutrophil depleting antibodies were administered twice daily. Control mice were injected with […] Rat isotype control (BD). Neutrophil depletion was monitored by manual blood differentials and FACS analysis. Flow Cytometry Peripheral blood was collected into EDTA-coated tubes, washed and resuspended in FACS buffer solution (PBS, 2% heat-inactivated FCS, 5 mM EDTA, and 0.02% sodium azide). The samples were blocked with […] and then incubated with fluorophore-conjugated antibodies. Erythrocytes were then lysed with FACS lysing solution (BD Biosciences) and the cell suspensions were analyzed on a FACSCalibur (BD Biosciences). Colony Formation Assay Female nude mice were orthotopically injected with 5×10^6 puromicin resistant 4T1 cells. On days 7 and 14 post tumour engraftment the mice were sacrificed and perfused with PBS. The lungs and livers were removed, washed with PBS and dissociated with Collagenase A (Roche). The single cell suspension was then plated onto puromicin containing media and selected for 14 day. Colonies were stained with Methylene-Blue and counted manually. Mouse Neutrophil Purification Whole blood was collected by cardiac puncture using heparinized (Sigma) syringe. The blood was diluted with 5 volumes of PBS containing 0.5% BSA and subjected to a discontinuous Histopaque (Sigma) gradient (1.077 and 1.119). Neutrophils were collected from the 1.077-1.119 interface, lymphocytes and monocytes collected from the plasma-1.077 interface. RBCs were eliminated by hypotonic lysis. The cells were washed twice with PBS-BSA and re-suspended in OptiMEM (Invitrogen) 0.5% FBS in a final concentration of 2×10^6 cells/ml. Neutrophil purity and viability were determined visually and were consistently >98%. Human Neutrophil Purification As part of a Memorial Sloan-Kettering Cancer Center institutionally approved protocol, blood samples (˜10 cc) were collected from healthy volunteers or from patients who were already having blood drawn for pre-surgical testing. Patients were consented accordingly as part of the approved protocol. […] Patients had either mastectomies or lumpectomies planned and had blood drawn prior to definitive surgical removal of their primary tumor or chemotherapy. Blood samples were transferred to the lab for analysis no more than 1 hour post-blood draw. Heparinzed blood (20 U/ml final) was mixed with an equal volume of Dextran 500 (3% in saline) and incubated 30 minutes at room temperature. The leukocyte-rich supernatant was layered on top of histopaque 1077 (Sigma) and centrifuged. Neutrophils, collected in the pellet fraction, were resuspended in 10 ml 0.2% NaCl for 30 seconds to remove contaminating erythrocytes. Isotonicity was restored by the addition of 10 ml 1.6% NaCl. Neutrophils were than washed three times in Hanks's balanced salt solution and resuspended in RPMI+FCS2%. In vitro Killing Assay Luciferase labelled cells (5,000/well) were plated on a 96-well, flat bottom white polystyrene tissue culture plate in OptiMEM 0.5% FBS (mouse neutrophils) or RPMI 2% FBS (human neutrophils). 4 hours later, purified neutrophils (100,000/well for mouse neutrophils and 5000 for human neutrophils) were added to the plated tumour cells and co-cultured overnight. […]

B1: rhG-CSF: recombinant methionyl human granulocyte colony-stimulating factor (Neupogen, Amgen) (protein, chains of the INN, looked up)
chain: MTPLGPASSLPQSFLLKCLEQVRKIQGDGAALQEKLCATYKLCHPEELVLLGHSLGIPWAPLSSCPSQALQLAGCLSQLHSGLFLYQGLLQALEGISPELGPTLDTLQLDVADFATTIWQQMEELGMAPALQPTQGAMPAFASAFQRRAGGVLVASHLQSFLEVSYRVLRHLAQP
modifications: N-terminal methionine
B1: the “circulating neutrophils after rhG-CSF administration” value in the assay with neutrophils (250 μg/kg/day s.c.) is “significant increase in circulating and lung-associated neutrophils; also recorded: significant increase in circulating and lung-associated neutrophil numbers”. The “increase of circulating neutrophil numbers” value with neutrophils (250 ug/kg/day s.c. for 4 consecutive days) is reported as 2-4 fold. The “lung-associated neutrophils (Ly-6G or myeloperoxidase immunohistochemistry)” value with neutrophils (rhG-CSF administration) is recorded as “increase in lung-associated neutrophils”. Moreover, the “neutrophil mediated killing of 4T1 cells (tumor cell viability by luciferase activity)” value with 4T1 cells is recorded as “does not induce neutrophil mediated cell killing; also recorded: does not induce a cytotoxic neutrophil response; also recorded: did not induce a cytotoxic neutrophil response in vitro”; in the assay with 4T1 cells (listed as G-CSF), “no significant effect on tumor-cell viability”.
